Source: US20230090247A1, “MOLECULES TARGETING RAS PROTEIN” (AELIN THERAPEUTICS, priority 2020, published 2023)
Square brackets hold non-standard residues; d marks the D form. Peptide text beside a SMILES is read from it. Dap = NC[C@H](N)C(=O)O

How the values were obtained:
[1] = system: NCI-H441 lung adenocarcinoma cells (suspension spheroid cultures); format: cell-based, human
[2] = system: SW620 xenograft of human KRAS G12V mutant colorectal cancer; experiment: In vivo SW620 xenograft model; set-up: species or system Female NCr nu/nu mice
Experimental: FIG. 12 illustrates that RAS-targeting pept-ins reduce tumor growth in a xenograft model of KRAS G12V mutant cancer. […] Pept-ins were dosed 3 times per week by intratumoral injection at either 20 or 200 μg once the tumors reached 100-150 mm^3. Model response was monitored by a positive control group receiving Irinotecan at 100 mg/kg, once per week for 3 weeks. Group sizes were N=6 for the non-treated group, N=5 for the vehicle groups and N=8 for the pept-in and positive control groups. Graphs show box plots of tumor volumes at day 22 after treatment started.
Female NCr nu/nu mice (8 to 12 weeks) were inoculated with 1×10^6 SW620 tumor cells in 50% Matrigel subcutaneously in the hind flank. The cell Injection Volume was 0.1 mL/mouse. When tumors reached an average size of 100-150 mm^3 a pair match was performed, and treatment started. Group sizes were N=6 for the non-treated group, N=5 for the vehicle groups and N=8 for the pept-in and positive control groups. Tumor growth was monitored by caliper measurement twice per week. Model response was monitored by Irinotecan dosed once per week at 100 mg/kg intraperitoneally for 3 weeks.
To assess whether the RAS-targeting pept-ins are able to attenuate growth of KRAS G12V-driven tumors in vivo, a subcutaneous xenograft model of human KRAS G12V colorectal cancer (SW620) was used. Once the tumors reached 100-150 mm^3 in size, pept-ins were administered directly into the tumor mass by intratumoral injection three times per week during two weeks at two different doses (20 μg and 200 μg).

[3] = biological target: T1, KRAS G12V (human, UniProt P01116-2 1-188, limits assumed); experiment: cell-based or functional assay
[4] = biological target: T1, KRAS G12V; experiment: cell-based or functional assay; remark: listed apart in the source
[5] = biological target: T1, KRAS G12V; experiment: cell-based or functional assay; remark: listed apart in the source

Molecule	IC50 [1] [µM]	IC50 on cell viability, NCI-H441 suspension spheroids, CellTiter Glo 3D, 5 days [3] [µM]	other results
Ac-AVVVGAVKGSAVVVGAVK-NH2 [04-006-N060]	31.7	–	–
CC(=O)N[C@@H](CCCCN)C(=O)N[C@H](C(=O)N[C@H](C(=O)N[C@H](C(=O)NCC(=O)N[C@@H](C)C(=O)N[C@H](C(=O)NCC(=O)N[C@@H](CCCCN)C(=O)NCC(=O)N[C@@H](Cc1ccccc1)C(=O)N[C@@H](CCCCN)C(=O)N[C@H](C(=O)N[C@H](C(=O)N[C@H](C(=O)NCC(=O)N[C@@H](C)C(=O)N[C@H](C(=O)NCC(=O)N[C@@H](CCCCN)C(N)=O)C(C)C)C(C)C)C(C)C)C(C)C)C(C)C)C(C)C)C(C)C)C(C)C [04-015-N063]	38.7	–	–
Ac-KVVVGAVAGSKVVVGAVK-NH2 [04-006-N050]	5.7	–	–
Ac-KVVVGAVGKFFKVVVGAVGK-NH2 [04-015-N064]	48.9	–	–
Ac-AVVVGAVAGSKVVVGAVK-NH2 [04-006-N082]	18.2	–	–
CC(=O)N[C@@H](CN)C(=O)N[C@H](C(=O)N[C@H](C(=O)N[C@H](C(=O)NCC(=O)N[C@@H](C)C(=O)N[C@H](C(=O)NCC(=O)N[C@H](C(=O)NCC(=O)N[C@@H](CCCCN)C(=O)NCC(=O)N[C@@H](CO)C(=O)N[C@@H](CCCCN)C(=O)N[C@@H](Cc1c[nH]c2ccccc12)C(=O)N[C@H](C(=O)NCC(=O)N[C@@H](C)C(=O)N[C@H](C(=O)NCC(=O)N[C@H](C(=O)NCC(=O)N[C@@H](CN)C(N)=O)C(C)C)C(C)C)C(C)C)C(C)C)C(C)C)C(C)C)C(C)C)C(C)C [04-033-N022] (Ac-[Dap]VVVGAVGVGKGSKWVGAVGVG[Dap]-NH2)	5	–	–
CC(=O)N[C@@H](CCCCN)C(=O)N[C@H](C(=O)N[C@H](C(=O)N[C@H](C(=O)NCC(=O)N[C@@H](C)C(=O)N[C@H](C(=O)N[C@@H](CCCCN)C(=O)NCC(=O)N[C@@H](CO)C(=O)N[C@@H](C)C(=O)N[C@H](C(=O)N[C@H](C(=O)N[C@H](C(=O)NCC(=O)N[C@@H](C)C(=O)N[C@H](C(=O)N[C@@H](CCCCN)C(N)=O)C(C)C)C(C)C)C(C)C)C(C)C)C(C)C)C(C)C)C(C)C)C(C)C [04-006-N053]	21.6	–	–
Ac-KLVVVGAVKGSKLVVVGAVK-NH2 [04-014-N001]	–	–	activity in the spheroid setting ([1]; 25 μM, 5 days of exposure): did not display activity
Ac-KVVVGAVKASKVVVGAVK-NH2 [04-006-N051]	10.4	–	–
Ac-AVVVGAVKGSKVVVGAVK-NH2 [04-006-N044]	5.3	–	–
Ac-KLSVFAIKKLSVFAIK-NH2 [04-004-N016]	45.9	–	–
Ac-KVVVGAVKGAKVVVGAVK-NH2 [04-006-N052]	30.6	–	–
Ac-KVVVGAVGVGKKVVVGAVGVGK-NH2 [04-033-N007]	13.1	–	–
CC(=O)N[C@@H](CCCCN)C(=O)N[C@H](C(=O)N[C@H](C(=O)N[C@H](C(=O)NCC(=O)N[C@@H](C)C(=O)N[C@H](C(=O)NCC(=O)N[C@@H](CCCCN)C(=O)NCC(=O)N[C@@H](CO)C(=O)N[C@@H](CCCCN)C(=O)N[C@H](C(=O)N[C@H](C(=O)N[C@H](C(=O)NCC(=O)N[C@@H](C)C(=O)N[C@H](C(=O)NCC(=O)N[C@@H](CCCCN)C(N)=O)C(C)C)C(C)C)C(C)C)C(C)C)C(C)C)C(C)C)C(C)C)C(C)C [04-015-N001]	–	–	average tumor volume at day 22 after treatment started ([2]; 20 μg intratumoral injection three times per week): significant reduction; average tumor volume at day 22 after treatment started ([2]; 200 μg intratumoral injection three times per week): significant reduction; reduction in tumor growth (comparison between pept-ins) ([2]; intratumoral, 20 μg and 200 μg): strongest reduction in tumor growth
Ac-KLSVFAIKKLSVFAIK-NH2 [pept-in 04-004-N016]	–	45.9	–
Ac-KVVVGAVGVGKGSKVVVGAVGVGK-NH2 [pept-in 04-033-N001]	–	–	IC50 on viability of adherent NCI-H441 cells, CellTiter Glo, 3 days [4]: ~10 µM; decrease in viability of NCI-H441 suspension spheroids, 25 µM, 5 days, CellTiter Glo 3D [4]: ≥ 75%; Normalised viability NCI-H441 4 days of exposure to 25 µM (%) [5]: 5.2%

Molecule	IC50 [1] [µM]	IC50 on cell viability, NCI-H441 suspension spheroids, CellTiter Glo 3D, 5 days [3] [µM]	other results
Ac-KVVVGAVKGSKVVVGAVA-NH2 [pept-in 04-006-N059]	–	15.7	–
Ac-AVVVGAVKGSKVVVGAVK-NH2 [pept-in 04-006-N044]	–	5.3	–
Ac-KVVVGAVKASKVVVGAVK-NH2 [pept-in 04-006-N051]	–	10.4	–
Ac-AVVVGAVKGSAVVVGAVK-NH2 [pept-in 04-006-N060]	–	31.7	–
Ac-KLVVVGAVKGSKLVVVGAVK-NH2 [pept-in 04-014-N001]	–	–	IC50 on viability of adherent NCI-H441 cells, CellTiter Glo, 3 days [4]: ~10 µM; Normalised viability NCI-H441 4 days of exposure to 25 µM (%) [5]: 9.1%
Ac-KVVVGAVKGSKVVVGAVK-NH2 [pept-in 04-006-N001]	–	–	IC50 on viability of adherent NCI-H441 cells, CellTiter Glo, 3 days [4]: ~10 µM; decrease in viability of NCI-H441 suspension spheroids, 25 µM, 5 days, CellTiter Glo 3D [4]: ≥ 75%; Normalised viability NCI-H441 4 days of exposure to 25 µM (%) [5]: 8.7%
Ac-KVVVGAVGKFFKVVVGAVGK-NH2 [pept-in 04-015-N064]	–	48.9	–
Ac-KVVVGAVGKGSKVVVGAVGK-NH2 [pept-in 04-015-N001]	–	–	IC50 on viability of adherent NCI-H441 cells, CellTiter Glo, 3 days [4]: ~10 µM; decrease in viability of NCI-H441 suspension spheroids, 25 µM, 5 days, CellTiter Glo 3D [4]: ≥ 75%; Normalised viability NCI-H441 4 days of exposure to 25 µM (%) [5]: 23.3%
Ac-KVVVGAVAGSKVVVGAVA-NH2 [pept-in 04-006-N066]	–	25.3	–
Ac-AVVVGAVAGSKVVVGAVK-NH2 [pept-in 04-006-N082]	–	18.2	–
Ac-KVVVGAVGKGFKVVVGAVGK-NH2 [pept-in 04-015-N063]	–	38.7	–
Ac-KLSVFAIKGSKLSVFAIK-NH2 [pept-in 04-004-N001]	–	–	IC50 on viability of adherent NCI-H441 cells, CellTiter Glo, 3 days [4]: ~10 µM; decrease in viability of NCI-H441 suspension spheroids, 25 µM, 5 days, CellTiter Glo 3D [4]: 75%; Normalised viability NCI-H441 4 days of exposure to 25 µM (%) [5]: 6.1%
Ac-KVVVGAVGVGKKVVVGAVGVGK-NH2 [pept-in 04-033-N007]	–	13.1	–
Ac-KVVVGAVKGSAVVVGAVK-NH2 [pept-in 04-006-N053]	–	21.6	–
Ac-KVVVGAVKGAKVVVGAVK-NH2 [pept-in 04-006-N052]	–	30.6	–
Ac-KVVVGAVAGSKVVVGAVK-NH2 [pept-in 04-006-N050]	–	5.7	–
